One data set deals with latent PDGF-CC (Homo sapiens, UniProt Q9NRA1). As to conditions: cited from earlier work.
In data set [1] the target is chimeric PDGF-C/PDGF-D molecule with CUB domain from PDGF-C and growth factor domain from PDGF-D (UniProt Q9NRA1).
Data set [2] concerns the target chimeric PDGF-D/PDGF-C molecule with CUB domain from PDGF-D and growth factor domain from PDGF-C (UniProt Q9GZP0).

Sequence of latent PDGF-CC (Q9NRA1 23-345): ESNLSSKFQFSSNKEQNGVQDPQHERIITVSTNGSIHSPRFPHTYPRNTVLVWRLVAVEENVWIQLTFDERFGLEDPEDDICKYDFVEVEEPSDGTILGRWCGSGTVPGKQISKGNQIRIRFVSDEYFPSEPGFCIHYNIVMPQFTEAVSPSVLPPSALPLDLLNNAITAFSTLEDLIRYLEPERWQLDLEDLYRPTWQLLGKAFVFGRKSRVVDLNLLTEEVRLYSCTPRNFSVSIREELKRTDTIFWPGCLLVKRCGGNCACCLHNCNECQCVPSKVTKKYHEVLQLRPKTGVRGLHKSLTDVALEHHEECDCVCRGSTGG
Sequence of chimeric PDGF-C/PDGF-D molecule with CUB domain from PDGF-C and growth factor domain from PDGF-D (Q9NRA1 whole entry, looked up, change not shown, the tested form may be a part): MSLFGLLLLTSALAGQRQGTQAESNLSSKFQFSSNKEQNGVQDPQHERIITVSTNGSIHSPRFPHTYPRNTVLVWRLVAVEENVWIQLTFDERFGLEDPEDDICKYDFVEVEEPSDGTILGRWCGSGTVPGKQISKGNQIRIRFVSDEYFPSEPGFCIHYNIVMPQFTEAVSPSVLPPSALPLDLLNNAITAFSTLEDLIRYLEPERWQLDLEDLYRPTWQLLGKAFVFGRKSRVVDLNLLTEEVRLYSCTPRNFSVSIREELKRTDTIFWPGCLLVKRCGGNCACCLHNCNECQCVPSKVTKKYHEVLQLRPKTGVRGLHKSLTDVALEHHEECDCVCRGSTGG
Sequence of chimeric PDGF-D/PDGF-C molecule with CUB domain from PDGF-D and growth factor domain from PDGF-C (Q9GZP0 other isoform, or with tags, fused parts or gaps mutant): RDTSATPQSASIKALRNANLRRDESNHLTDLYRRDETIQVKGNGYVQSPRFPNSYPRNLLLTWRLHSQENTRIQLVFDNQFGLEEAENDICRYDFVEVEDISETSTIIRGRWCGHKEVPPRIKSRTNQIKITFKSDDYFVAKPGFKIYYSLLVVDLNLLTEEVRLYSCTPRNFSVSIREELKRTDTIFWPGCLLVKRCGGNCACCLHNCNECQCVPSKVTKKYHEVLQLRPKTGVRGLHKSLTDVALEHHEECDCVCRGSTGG

Turning to “tPA: tissue plasminogen activator, specific activator of PDGF-CC”, the “activation of latent PDGF-CC” value in the data set with latent PDGF-CC (Fredriksson et al. 2004) was “activates latent PDGF-CC”. In addition, the “substrate specificity of the protease” value with latent PDGF-CC (PDGF-CC versus PDGF-DD) is “specific for PDGF-CC”.

Regarding urokinase plasminogen activator (uPA), the “proteolytic release of the growth factor domain (co-transfection, SDS-PAGE and immunoblot)” value in data set [1] and in data set [2] was “Analysis of all the PDGF-D/PDGF-C chimeric molecules revealed that no released growth factor domain could be visualized using specific antibodies” throughout.

The values are drawn from US20090041755A1, “Methods and Compositions For PDGF-D Activation and Inhibition” (Ludwig Institute For Cancer Research, priority 2005, published 2009).
